Laboratory results published in patent US8258279B2, “Isolated nucleic acids encoding soluble corticotropin releasing factor receptor type 2 (sCRFR2) polypeptides” (Research Development Foundation, priority 2005, dated 2012).
“Also recorded” adds a separate entry of the source.

How the values were obtained:
[1] = system: anti-sCRFR2α serum; test: Immunohistochemistry, specificity by preincubation of antiserum with synthetic immunogen; details: mouse brain sections; antiserum preincubated with immunogen
Description: Immunohistochemistry. Adult male C57B6J mice (Jackson Laboratories) and Sprague-Dawley albino rats (Harlan Sprague-Dawley) were anesthetized with chloral hydrate (350 mg/kg, ip) and perfused with Zamboni's fixative (Bittencourt et al., 1999), followed by 0-4 hr. post-fixation. Regularly spaced (1-in-4) series of 30 μm thick frontal sections throughout the brain were prepared for nickel-enhanced avidin-biotin-immunoperoxidase localization of sCRFR2α-ir using Vectastain Elite reagents (Vector Laboratories, Burlingame, Calif.). Primary sCRFR2α antisera were adsorbed against the carrier, affinity purified and used at a dilution of 1:2000. Specificity of immunostaining was evaluated using primary antisera preincubated overnight at 4° C. with 0-300 μM synthetic immunogen. Labeling was also evaluated in mutant mice deficient in either or both CRFRs (Smith et al., 1998; Bale et al. 2000). Detailed description of the fluorescence immunocytochemical analysis of COSM6 cells transfected with sCRFR2α can be found in the supporting text.
Further support for the specificity of labeling are observations that all immunolocalizations persisted in CRFR1- and/or CRFR2-deleted mice; note that the targeting construct used for generating each of the existing receptor-knockout lines would be expected to spare the sCRFR2α coding region (Smith et al., 1998; Timpl et al., 1998; Bale et al., 2000).

[2] = target: T1, Astressin (Mus musculus, UniProt Q60748); test: Radioreceptor assay, competitive displacement of [125I-DTyr0]-astressin bound to sCRFR2α; assay type: binding; details: range in parentheses in the next cell
T1 construct: A cDNA corresponding to amino acids 20-143 was generated by PCR; made in house; host or cells: E. coli
Description: (§1) Radioreceptor assays. The soluble protein, purified either from COS M6 cell media or E. coli was incubated in triplicate wells with [^125I-DTyr^O]-astressin and increasing concentration of unlabeled peptides as described (Perrin et al., 2003).
(§2) The interactions of the sCRFR2α with CRF family ligands were assessed by radioreceptor assay using competitive displacement of [^125I-D Tyr^o]-astressin bound to sCRFR2α.

[3] = target: T2, CRF (Mus musculus, UniProt Q60748); test: as above; assay type: binding; details: range in parentheses in the next cell
T2 construct: A cDNA corresponding to amino acids 20-143 was generated by PCR; made in house; host or cells: E. coli
Description: as §1, §2

[4] = target: T3, mUcn2 (Mus musculus, UniProt Q60748); test: as above; assay type: binding; details: range in parentheses
T3 construct: A cDNA corresponding to amino acids 20-143 was generated by PCR; made in house; host or cells: E. coli
Description: as §1, §2

[5] = target: T4, mUcn3 (Mus musculus, UniProt Q60748); test: as above; assay type: binding
T4 construct: A cDNA corresponding to amino acids 20-143 was generated by PCR; made in house; host or cells: E. coli
Description: as §1, §2

[6] = target: T5, rUcn1 (Mus musculus, UniProt Q60748); test: as above; assay type: binding; details: range in parentheses in the next cell
T5 construct: A cDNA corresponding to amino acids 20-143 was generated by PCR; made in house; host or cells: E. coli
Description: as §1, §2

[7] = system: cAMP response to Ucn 1 and CRF in HEK293T cells transfected with mouse CRFR2α; test: CRE-luciferase reporter (EVX1) assay of the cAMP response; assay type: cell-based; details: 4 h, 0.0001-100 nM Ucn 1 or CRF, 0.1 nM sCRFR2α
Description: (§3) Luciferase reporter containing a fragment of the CRE promoter of the EVX1 gene was cotransfected into 293T cells with CRFR2α expression vectors. Luciferase activity was measured following treatment (4 h) with 0.0001-100 nM Ucn 1 or CRF, in the presence or absence of 0.1 nM sCRFR2α. Assays were normalized to cotransfected β-galactosidase activity. The representative means of six replicates from one experiment is shown in the graph. FIG. 5B, Equilibrated CATH.a cells were treated with Ucn 1 (10 nM) with or without sCRFR2α (0.4 or 4 nM). After 5 min of receptor stimulation, cell lysates were harvested and subjected to SDS-PAGE immunoblot analysis using phospho-ERK1/2-p42, 44 antibody and ERK2-p44 antibody. The ERK activation was calculated by normalizing the levels of phosphorylated ERK1/2-p42, 44 to total ERK2-p44. The representative of means of triplicates from one experiment is shown in the graph. *, P<0.05 vs. vehicle treatment, #, P<0.05 vs. Ucn 1 treatment, UD=undetected.
Transient transfections and luciferase assay. […]
(§4) To delineate the possible functions of sCRFR2α, the inventors studied its effects on signaling by CRF family ligands. […] Because the urocortins activate MAPK signaling (Brar et al., 2002), the inventors measured the ability of sCRFR2α to inhibit the activation by Ucn 1 of ERK1/2-p42, 44 in CATH.a cells, which endogenously express CRFR1 and CRFR2α.

[8] = system: activation by Ucn 1 of ERK1/2-p42, 44 in CATH.a cells; test: Extracellular receptor kinase 1/2 (ERK1/2) assay; assay type: cell-based; details: Ucn 1 10 nM, sCRFR2α 0.4 or 4 nM, 5 min
Description: as §3, with “The representative of means of triplicates from one experiment is shown in the graph. *, P<0.05 vs. vehicle treatment, #, P<0.05 vs. Ucn 1 treatment, UD=undetected.” left out
Extracellular receptor kinase 1/2 (ERK1/2) assay. […] Cells were harvested immediately and analyzed for phosphorylated ERK1/2-p42, 44, as previously described (Chen et al., 2005).
as §4

[9] = system: rabbit anti-sCRFR2α (aa 113-143); test: sCRFR2α radioimmunoassay (RIA); assay type: binding; details: anti-sCRFR2α at 1/300,000; synthetic sCRFR2α (113-143) as standard
Description: FIGS. 3A-3C. A highly specific antiserum raised in rabbit using a synthetic peptide fragment encoding the unique C-terminal tail of mouse sCRFR2α protein (aa 113-143) was used to develop a sCRFR2α radioimmunoassay, used for immunoblot analysis and for immunocytochemistry. FIG. 3A is a western immunoblot of mouse sCRFR2α isolated from the medium of COS-M6 cells transiently transfected with sCRFR2αFLAG construct reacted with anti-sCRFR2α-(113-143) serum (left panel) or monoclonal M2 anti-FLAG (right panel). Lanes 1, 2, and 3 correspond to 0.1, 1.0, and 10 μl of sCRFR2α-FLAG extract, respectively. FIG. 3B, Displacement of [^125I]Tyr^113 sCRFR2α (aa 113-143) binding to rabbit anti-sCRFR2α (aa113-143) by synthetic sCRFR2α (aa 113-143) and by purified COS-M6 expressed sCRFR2α (aa 113-143)-FLAG. FIG. 3C, Immunofluorescence staining of COS-M6 cells transiently transfected with mouse sCRFR2α construct visualized with the anti-sCRFR2α (aa 113-143) serum followed by a Cy3-conjugated secondary antibody (FIG. 3C(b)). The slides were counterstained with DAPI to visualize both transfected and non transfected cells (FIG. 3C(a)).
Radio-Immuno Assays (RIA). […]

| Molecule | concentration blocking immunolabeling throughout the brain on pre-incubation of the antiserum [1] [µM] | Inhibitory binding constants, Ki, Astressin [2] | Inhibitory binding constants, Ki, CRF [3] | Inhibitory binding constants, Ki, mUcn2 [4] | Inhibitory binding constants, Ki, mUcn3 [5] | Inhibitory binding constants, Ki, rUcn1 [6] | inhibition of the cAMP response to Ucn 1 and CRF (CRE luciferase activity) [7] | inhibition of induction of phosphorylated ERK by Ucn 1 [8] | EC50 in sCRFR2α RIA [9] [pg per tube] |
| --- | --- | --- | --- | --- | --- | --- | --- | --- | --- |
| sCRFR2α (113-143): synthetic peptide fragment encoding the unique C-terminal tail (aa 113-143) of mouse sCRFR2α, used as immunogen and RIA standard (YRIALIVNYLGHCVSVVALVAAFLLFLVLRS; soluble splice isoform sCRFR2alpha; UniProt Q60748 113-143, looked up, fragment) | ≥ 30 |  |  |  |  |  |  |  |  |
| sCRFR2α: 143 amino acid soluble splice variant of mouse CRF receptor type 2α lacking exon six (protein) MDAALLLSLLEAQLQPGAGRRAAPGRLGSAPGPRRSLHLLQHDLGPDRDLLATERTRSPSRETVPRVLQWHQVQHDPECLQRVPGERDLGLKGQLLTLRTHFG |  | nanomolar affinities | nanomolar affinities | much lower | much lower | nanomolar affinities | inhibit, in a dose dependent manner; also recorded: interferes with the induction of cAMP | inhibits the induction of phosphorylated ERK; also recorded: interferes with the induction | ~5 |
